Assays:
Assay in all cases: microtubule co-sedimentation (taxol-mediated polymerisation, sucrose gradient centrifugation) with western blot quantification
EZRIN = EZRIN (UniProt P26040); details: E18.5 forebrain, n = 3, mean ± s.e.m., parent: est. 0.10, read off a plot
VAPB = VAPB (UniProt Q9QY76); details: E18.5 forebrain, n = 3, mean ± s.e.m., parent: est. 0.27, read off a plot
VAPA = VAPA (UniProt Q9WV55); details: E18.5 forebrain, n = 3, mean ± s.e.m., parent: est. 0.30, read off a plot
[1] = target: dynein intermediate chain (DYNC1I1/2) (UniProt O88485); details: E18.5 forebrain; n = 3; mean ± s.e.m.; P<0.01; parent: est. 0.55; read off a plot
KIF5C = KIF5C (UniProt P28738); details: E18.5 forebrain, n = 3, mean ± s.e.m., parent: est. 0.61, read off a plot
REEP1 = REEP1 (UniProt Q8BGH4); details: E18.5 forebrain, n = 3, mean ± s.e.m., parent: est. 0.28, read off a plot

response (ratio MT pellet/lysate) (EZRIN): 0.12 | response (ratio MT pellet/lysate) (VAPB): 0.14 | response (ratio MT pellet/lysate) (VAPA): 0.34 | response (ratio MT pellet/lysate) [1]: 0.29 | response (ratio MT pellet/lysate) (KIF5C): 0.6 | response (ratio MT pellet/lysate) (REEP1): 0.05
Substance: microtubules from the forebrain of E18.5 R402H/R402H littermate controls (no Cre; wild-type Tuba1a expressed) (from UniProt P68369;P99024)

Source: paper PMC7660477
